Like-named read-outs stand apart in the source and are kept apart here.
Tests used:
Experiment in all cases: EMSA
HEN1 Δ38-45 [1] = biological target: T1, HEN1 Δ38-45 (Arabidopsis thaliana, UniProt Q9C5Q8 1-37+=G+46-942, internal_change)
T1 sequence: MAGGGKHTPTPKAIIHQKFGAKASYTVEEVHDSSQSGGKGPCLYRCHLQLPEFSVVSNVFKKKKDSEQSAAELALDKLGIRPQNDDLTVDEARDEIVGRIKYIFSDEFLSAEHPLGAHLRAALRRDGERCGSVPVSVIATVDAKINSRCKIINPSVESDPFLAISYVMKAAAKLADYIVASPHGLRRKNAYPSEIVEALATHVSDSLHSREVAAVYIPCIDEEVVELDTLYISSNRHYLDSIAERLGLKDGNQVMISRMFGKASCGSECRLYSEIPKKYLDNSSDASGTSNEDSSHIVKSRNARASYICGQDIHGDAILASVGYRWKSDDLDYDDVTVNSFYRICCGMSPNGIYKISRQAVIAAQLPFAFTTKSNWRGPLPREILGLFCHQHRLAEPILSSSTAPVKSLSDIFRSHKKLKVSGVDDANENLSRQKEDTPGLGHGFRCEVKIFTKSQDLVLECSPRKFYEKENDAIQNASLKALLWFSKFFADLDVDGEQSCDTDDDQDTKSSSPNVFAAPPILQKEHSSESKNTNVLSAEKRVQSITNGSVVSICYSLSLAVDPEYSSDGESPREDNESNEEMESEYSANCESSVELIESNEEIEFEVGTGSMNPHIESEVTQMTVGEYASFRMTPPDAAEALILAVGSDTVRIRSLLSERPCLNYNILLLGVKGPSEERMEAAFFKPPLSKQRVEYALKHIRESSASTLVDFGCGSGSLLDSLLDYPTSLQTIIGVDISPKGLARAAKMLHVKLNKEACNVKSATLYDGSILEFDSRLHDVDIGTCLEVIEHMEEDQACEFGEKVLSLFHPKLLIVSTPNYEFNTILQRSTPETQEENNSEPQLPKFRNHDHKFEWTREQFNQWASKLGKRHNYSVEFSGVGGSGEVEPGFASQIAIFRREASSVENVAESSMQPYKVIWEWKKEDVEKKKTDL

HYL1 = biological target: T2, HYL1 (Arabidopsis thaliana, UniProt O04492 1-419)
T2 sequence: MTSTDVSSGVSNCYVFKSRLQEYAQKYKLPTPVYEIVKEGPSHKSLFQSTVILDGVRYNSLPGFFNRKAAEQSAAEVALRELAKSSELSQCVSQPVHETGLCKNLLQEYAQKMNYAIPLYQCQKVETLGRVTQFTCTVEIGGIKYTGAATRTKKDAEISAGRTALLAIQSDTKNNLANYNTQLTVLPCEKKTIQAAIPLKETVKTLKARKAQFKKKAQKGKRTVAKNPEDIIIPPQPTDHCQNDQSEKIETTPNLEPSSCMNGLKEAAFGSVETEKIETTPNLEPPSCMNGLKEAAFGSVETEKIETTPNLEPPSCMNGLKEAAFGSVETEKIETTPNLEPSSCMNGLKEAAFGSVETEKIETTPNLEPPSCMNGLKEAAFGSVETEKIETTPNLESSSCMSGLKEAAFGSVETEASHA

HEN1 wt = biological target: T3, HEN1 wt (Arabidopsis thaliana, UniProt Q9C5Q8 1-942)
T3 sequence: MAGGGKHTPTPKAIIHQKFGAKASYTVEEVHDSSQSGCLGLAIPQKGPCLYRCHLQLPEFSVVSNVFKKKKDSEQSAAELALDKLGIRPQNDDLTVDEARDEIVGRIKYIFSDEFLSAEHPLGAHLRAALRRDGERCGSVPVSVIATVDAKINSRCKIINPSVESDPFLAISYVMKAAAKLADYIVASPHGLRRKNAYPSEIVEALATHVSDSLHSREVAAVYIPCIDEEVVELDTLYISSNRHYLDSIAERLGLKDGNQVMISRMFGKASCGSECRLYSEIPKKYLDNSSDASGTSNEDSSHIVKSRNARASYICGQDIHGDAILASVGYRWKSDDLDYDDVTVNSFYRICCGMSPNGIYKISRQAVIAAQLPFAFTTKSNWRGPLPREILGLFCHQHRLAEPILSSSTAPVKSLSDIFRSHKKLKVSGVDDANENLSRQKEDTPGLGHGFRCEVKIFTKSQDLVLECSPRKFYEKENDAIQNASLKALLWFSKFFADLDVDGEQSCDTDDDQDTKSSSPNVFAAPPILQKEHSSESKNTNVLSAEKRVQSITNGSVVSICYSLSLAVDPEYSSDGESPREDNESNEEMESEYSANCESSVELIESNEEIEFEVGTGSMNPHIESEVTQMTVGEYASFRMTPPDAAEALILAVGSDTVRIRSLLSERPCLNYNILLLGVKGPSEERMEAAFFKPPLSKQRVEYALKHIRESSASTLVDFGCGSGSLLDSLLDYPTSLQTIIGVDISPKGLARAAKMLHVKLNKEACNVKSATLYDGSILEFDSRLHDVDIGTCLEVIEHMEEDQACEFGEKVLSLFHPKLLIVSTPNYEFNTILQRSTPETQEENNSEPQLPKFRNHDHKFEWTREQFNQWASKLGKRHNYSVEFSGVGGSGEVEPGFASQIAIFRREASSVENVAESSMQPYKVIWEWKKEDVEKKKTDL

HEN1 Δ38-45 [2] = biological target: T1, HEN1 Δ38-45; remark: listed apart in the source

B1: miR173/miR173* (dsRNA)
RNA 1: UUCGCUUGCAGAGAGAAAUCAC
RNA 2: GAUUCUCUGUGUAAGCGAAAG
Kd (HEN1 Δ38-45 [1]): 0.32 ± 0.04 nM
binding result (HYL1): binds
Kd (HEN1 wt): 0.43 ± 0.05 nM
Kd (HEN1 Δ38-45 [2]): 0.79 ± 0.05 nM
